Experimental data published in IntAct's records for PubMed 23612611.

B1: E3 ubiquitin-protein ligase CHIP (Mus musculus), Q9WUD1 (parent)
chain: MKGKEEKEGGARLGTGGGGSPDKSPSAQELKEQGNRLFVGRKYPEAAACYGRAITRNPLVAVYYTNRALCYLKMQQPEQALADCRRALELDGQSVKAHFFLGQCQLEMESYDEAIANLQRAYSLAKEQRLNFGDDIPSALRIAKKKRWNSIEERRIHQESELHSYLTRLIAAERERELEECQRNHEGHEDDGHIRAQQACIEAKHDKYMADMDELFSQVDEKRKKRDIPDYLCGKISFELMREPCITPSGITYDRKDIEEHLQRVGHFDPVTRSPLTQEQLIPNLAMKEVIDAFISENGWVEDY
partner: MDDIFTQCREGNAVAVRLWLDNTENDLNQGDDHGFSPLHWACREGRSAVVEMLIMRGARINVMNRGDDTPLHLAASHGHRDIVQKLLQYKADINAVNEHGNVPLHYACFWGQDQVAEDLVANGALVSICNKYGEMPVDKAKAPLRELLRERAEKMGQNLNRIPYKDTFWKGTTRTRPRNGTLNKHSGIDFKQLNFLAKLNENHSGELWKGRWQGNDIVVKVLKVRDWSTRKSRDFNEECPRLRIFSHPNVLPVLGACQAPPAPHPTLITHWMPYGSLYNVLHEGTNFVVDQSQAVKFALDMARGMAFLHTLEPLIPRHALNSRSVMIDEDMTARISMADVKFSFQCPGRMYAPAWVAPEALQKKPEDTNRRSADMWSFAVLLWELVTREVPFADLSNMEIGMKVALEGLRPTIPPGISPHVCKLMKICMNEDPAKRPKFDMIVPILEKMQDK

Variants of: B1
Details: with ilk_mouse Ilk

Variant	effect of a mutation on the interaction
K31A	decreasing interaction
